pKd: −log10 of the molar value.

The term pKd denotes the negative decadic logarithm of the Kd, by convention in mol/L. High values mean a low Kd, low ones a high Kd.

The target of this data set is Insulin (UniProt P01308+P01308). In words: flow. To be noted: dT replaced by C8-alkyne-dU clicked with phenylalanine azide (positions incorporated by polymerase); bead-based assay, buffer.
Insulin, sequence (P01308 25-54, chain 1 of 2): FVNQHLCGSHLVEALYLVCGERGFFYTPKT
Insulin, sequence (P01308 90-110, chain 2 of 2): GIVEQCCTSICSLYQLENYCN

As for “GCGCATACCAGCTTATTCAATCGTCGAGAACTCCTCCGGCTCTAACTCCGATTATAGCCAAAGATAGTAAGTGCAATCTCGGC [Ins24]”, the pKd was 5.59.

Source of the values: patent US20210324374.
